# Experimental data: the nanobody polyreactivity screen of Harvey et al. (2022)
# Assay: yeast display, Sf9 membrane polyspecificity reagent, FACS + sequencing; frameworks hold sequencing errors
# How it was run: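 Galactose induction of a Saccharomyces cerevisiae BJ5465 synthetic nanobody display library ran 36–48 hours. The cells were then stained for 1 hour at 4 °C with 10% biotinylated, detergent-solubilized Sf9 membrane reagent, pulled down on streptavidin microbeads and FACS-sorted into low and high (top ~1%) gates on expression and reagent-binding fluorescence. Labels for polyreactivity follow the gate of origin.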
row,Sequence,polyreactivity (PSR sort gate)
1,QVQLVESGGGLVQAGGSLRLSCAASGRLFNYNAMGWYRQAPGKERELVASITVSRGSTYYADSVKGRFTISRDNATNTVYLQMYSLKPEDTAVYNCAADYGSKLDYGYWGQGTQVTVSS,low polyreactivity
2,QVQLVESGGGLVQAGGSLRLSCAASGSIFQYNAMGWYRQEPGKERELVATITYIGGRTYYAYSVKGRFTISRDNAKNTVYLQMNSLKPEDTAVYYCAAEYYVISSPSFYEYDYWGQGTQVTVSS,low polyreactivity
3,QVQLVESGGGLVQAGGSLRLSCAASGFILYFNAMGWYRQAPGKERELVAAITSDGGSTYYADSVKGRFTISRDNAKNTVYLQMNSLKPEDTAVYYCAADASTWYTEEYWGQGTQVTVSS,low polyreactivity
4,QVQLVESGGGLVQAGGSLRLSCAASGNIFQRYAMGWYRQAPGKERELVAAISYSGARTYYADSVKGRFTISRDNAKNTVYLQMNSLKPEDTAVYYCATYGGLTKFRLAYDYWGQGTQVTVSS,high polyreactivity
5,QVQLVESGGGLVQAGGSLRLSCAASGSTFQSYTMGWYRQAPGKERELVATITSTSSTSYADSVKGRFTISRDNAKNTVYLQMNSLKPEDTAVYYCNAEGLHWGQVTQVTVSS,low polyreactivity
6,QVQLVESGGGLVQAGGSLRLSCAASGITFGGNAMGWSRQAPGKERELVAAIDEGGGSTYYADSVKGRFTISRDNAKNTVYLQMNSLKPEDTAVYYCAADFVYYGYYYWGQGTQVTVSS,low polyreactivity
7,QVQLEESGGGLVQAGGSLRLICAASGSIFYYKYAMGGYRQAPGKERELVAAITSTGGTTYYADSVKGRFTISRDNAKNTVYLQMNSLKPEDTAVYYCAALAPYIGGVDYDYWGQGTQVTVSS,low polyreactivity
8,QVQLVESGGGLVQAGGSLRLSCAASGSIFGYYTMGLYRQAPGKERELVATINWSGGSTYYADSVKGRFTISRDNAKNTVYLQMNSLKPEDTAVYYCAKTRPYLRYWDSSTYDYWGQGTQVTVSS,high polyreactivity
9,QVQLVESGGGLVQAGGSLRLSCAASGITIRLSALGGYRQAPGNERELVAAITSGGSTYADSVKGRFTISRDNAKNTVYLQMNSLKPEDTAVYYCNAEALVNGGYDYWGQGTQVTVSS,high polyreactivity
10,QVHLVESGGGLVQAGGSLRLSCAAYGRIFTLNAMGWDRQAPGKERGWVARISRTGGSTYYADSVKGRFTISRDNAKNTVYLQMNSLKPEDTAVYYCAAAGFSRQPGAGAYYYWGQCTQVTVSS,high polyreactivity
11,QVQLVESGGGLVQAGGSLRLSCAASGRTFGANAMGWYRQAPGKERELVAASTQDGGSTYYADSVKGRFTISRDNAKNTVYLQMNSLKPEDTAVYYCAADLVVFVQFDVAVDYYYWGQGTQVTVSS,low polyreactivity
12,QVQLVESGGGLVQAGGRLRLSCAASGFIFKYNAMGWSRQAPGKERELVAAISRGGRTYYADSVKGRFTISRDNAKNTVYLQMNSLKPEDTAVYYCAAVSHYPAGYDYWGQGTQVTVSS,high polyreactivity
13,QVQLVESGGGLVQAGGSLRLSCAASGYTFPRNAMGWYRQEPGKERELVAAISASGGRTSYADSVKVRFTISRDNAKNTVYLQMNSLKPEDTAVYYCAAPFLRRIGYPRSYDYWGQGTQVTVSS,high polyreactivity
14,QDQLVESGGGLVQAGGSLRLSCAASGRIFNQYGMGWYRQAPGKERELVAAIRSGDSTNYADSVKGRFTISRDNAKNTVYLQMNSLKPEDTAVYYCARDRPGDYAGYDYWGQGTQVTVSS,low polyreactivity
15,QVQLVESGGGLVQAGGSLRLSCAASGSIFTYYAMGWYRQAPGKERELVAAINWSGGSTYYADSVKGRFTISRDNAKNTVYLQMNSLKPEDTAVYYCATDYYARRHSPRYDYWGQGTQVTVSS,low polyreactivity
16,QDQHVESGGGLVQAGGSLRLSCAASGLTFTLYAMGWYRKAPGKERELVAAITRSGGSTSYADSVKGRFTISRDYAKNTVYLQMNSLKPEDTAVYYCNADSPGYTAVRLVEFDYWGQGTQVTVSS,low polyreactivity
17,QVQLVESGGGLVQAGGSLRLSCAASGRIFKQYAMGWYRQAPGKERELVAAISWDGGSTYYADSVKGRFTISRDNAKNTVYLQMNSLKPEDTAVYDCNKDLYYAYDYWGQGTQVTVSS,low polyreactivity
18,QVQLVESGGGLVQAGGSLRLSCAASGNISPGNVMGWYRQAPGKERELVAAITISGGSTYYADSVKGRFTISRDNAKNTVYLQMNSLKPEDTAVYYCAKRTKFYYTGSGYGKYYYWGQGTQVTVSS,high polyreactivity
19,QVQLVESGGGLVQAGGSLRLSCAASGRTFRYNALGWYRPAPGKERELVASITSGGSTNYADSVKGRFTMSRDNAKNTVYLQMNSLKPEDTAVYYCASDERRPYWQHSIGSGRPFDYWGQGTQVTVSS,low polyreactivity
20,QVQLVESGGGLVQAGGSLRLSCAASGRTFYANAMGWYRQAPGKERELVAAISTGGDGTYYADSVKGRFTISRDNAKNTVYLQMNSLKPEDTAVYYCAVRHRASGILYDYWGQGTQVTVSS,low polyreactivity
21,QVQLVESGGGLVQAGGSLRLSCAASGSISYVNAMGWYRQAPGKERELVAAITGGGSTNYADSVKGRFTISRDNAKNTVYLQMNSLKPEDTAVYYCNSGDSTGEVIGDYWGQGTQVTVSS,low polyreactivity
22,QVQLVESGGGLVQAGGSLRLSCAASGRTFSRYTMGWYRQAPGKEREFVAAISVNGGTTHYADSVKGRFTISRDNAKNTVYLQMNSLKPEDTAVYYCAARNYLARRYGYWGQGTQVTVSS,high polyreactivity
